Three molecules from PMC5879082, “PutA Is Required for Virulence and Regulated by PruR in Pseudomonas aeruginosa” can be followed below.

The target of data set [1] is T1, rPruR (AraC/XylS family regulator) (Pseudomonas aeruginosa PAK) (UniProt Q9I5F8).
T1 sequence: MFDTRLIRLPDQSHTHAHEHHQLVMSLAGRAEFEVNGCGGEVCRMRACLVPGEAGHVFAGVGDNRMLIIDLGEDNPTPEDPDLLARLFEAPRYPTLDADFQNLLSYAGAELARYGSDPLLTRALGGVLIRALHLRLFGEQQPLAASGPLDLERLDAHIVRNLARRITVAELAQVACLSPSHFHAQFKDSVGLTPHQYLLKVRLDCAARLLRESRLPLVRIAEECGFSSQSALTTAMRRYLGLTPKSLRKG
Description: EMSA. The settings on record: 50 mM Tris pH 7.9, 50 mM NaCl, 0.5 mM EDTA, 10% glycerol, 1% NP-40, 25 C, 10 min; 50 ng DNA, 2 ug rPruR in 20 ul; 8% native PAGE in TBE on ice (EMSA) …. In general terms: In EMSA bound probe runs differently from free probe, usually more slowly.

Data set [2] has as its target T2, rPruR (AraC/XylS family regulator) (Pseudomonas aeruginosa PAK, UniProt Q9I5F8 1-250).
T2 sequence: T1 sequence
Description: EMSA; 50 mM Tris pH 7.9, 50 mM NaCl, 0.5 mM EDTA, 10% glycerol, 1% NP-40, 25 C, 10 min; 50 ng DNA, 2 ug rPruR in 20 ul; 8% native PAGE in TBE on ice (EMSA); footprint 300 ng probe, 0.09 U DNase I, 25 C 5 min. The conditions noted are these: protein: recombinant; tags: His tag (pET-28a(+)); blunt.

In the case of “CCCTCTCGCAGCCACTACATTCCGCTATCCGCTGGTGCCTCGCGCCGGCGGAATGGGCCTGACCCATACTGATCCGTATTCCCGCGCCACAGGACGTGCCGCGCCGCCGGCACAACCCGCCGGCGGCGGTGCCCCGGGCAATGGACGCCTGGCCGGACTTCTTTCAATAACAATGGCTCCACAAGAGGAGGGCGTG (double strand) [putA promoter F3]”, the binding result in data set [1] was “no binding”.

Consider “CTTTCCCGTTCCTCTTCGCCGGCAGGCATGCGGACATTGCCGCTGCACGTCGGCACGACGCCATGCAGAGTGGCTACGCGGGTCTACCGACACAAAAAGAAATAATATAACATCCCAATAAATACGCCGAT (double strand) [putA promoter F5]”, for which the binding entry in data set [1] was “no binding”.

B1: putA promoter F6 (dsDNA)
DNA 1: TTCCGCAGCCAGGAGTTTTCCGCAAAAACTCCAGAGTCTTTCGCAAGAATCGC
DNA 2: GCGATTCTTGCGAAAGACTCTGGAGTTTTTGCGGAAAACTCCTGGCTGCGGAA
As to B1, the binding result in data set [2] is reported as “binds”.
